B1: HDV Ribozyme (parent)
chain: GGCCGGCAUGGUCCCAGCCUCCUCGCUGGCGCCGGCUGGGCAACAUUCCGAGGGGACCGUCCCCUCGGUAAUGGCGAAUGGGACCCA

Variants of: B1
Experiment: self-cleavage, relative activity (ratio to wild type); higher = more cleavage; co-transcriptional

Row | Variant | self-cleavage
1 | GGCCGGCAUGGUCCCAGCCUCCUCGCUGACGCCGGCUGGGCAACAUCCCGAGGGGACCGUCCCCUCGGUAAUGGCGAAUGGGACCCA | 0.16
2 | GGCCGGCAUGGUCCCAGCCUCCUCGCUGACGCCGGCUGGGCAACAUUCCGAGGGGACCGACCCCUCGGUAAUGGCGAAUGGGACCCA | 0.101
3 | GGCCGGCAUGGUCCCAGCCUCCUCGCUGACGCCGGCUGGGCAACAUUCCGAGGGGACCGUCCCCGCGGUAAUGGCGAAUGGGACCCA | 0.166
4 | GGCCGGCAUGGUCCCAGCCUCCUCGCUGACGCCGGCUGGGCAACAUUCCGAGGGGACCGUCCCCUCGGAAAUGGCGAAUGGGACCCA | 0.172
5 | GGCCGGCAUGGUCCCAGCCUCCUCGCUGACGCCGGCUGGGCAACAUUCCGAGGGGACCGUCCCCUCGGGAAUGGCGAAUGGGACCCA | 0.0475
6 | GGCCGGCAUGGUCCCAGCCUCCUCGCUGACGCCGGCUGGGCAACAUUCCGAGGGGACCGUCCCCUCGGUAACGGCGAAUGGGACCCA | 0.0852
7 | GGCCGGCAUGGUCCCAGCCUCCUCGCUGACGCCGGCUGGGCAACAUUCCGAGGGGACCGUCCCCUCGGUAAGGGCGAAUGGGACCCA | 0.0923
8 | GGCCGGCAUGGUCCCAGCCUCCUCGCUGACGCCGGCUGGGCAACAUUCCGAGGGGACCGUCCCCUCGGUAAUGGCGAAAGGGACCCA | 0.166
9 | GGCCGGCAUGGUCCCAGCCUCCUCGCUGACGCCGGCUGGGCAACAUUCCGAGGGGACCGUCCCCUCGGUAAUGGCGAACGGGACCCA | 0.113
10 | GGCCGGCAUGGUCCCAGCCUCCUCGCUGCCGCCGGCUGGGCCACAUUCCGAGGGGACCGUCCCCUCGGUAAUGGCGAAUGGGACCCA | 0
11 | GGCCGGCAUGGUCCCAGCCUCCUCGCUGCCGCCGGCUGGGCAGCAUUCCGAGGGGACCGUCCCCUCGGUAAUGGCGAAUGGGACCCA | 0.0692
12 | GGCCGGCAUGGUCCCAGCCUCCUCGCUGCCGCCGGCUGGGCAACAUUCCGUGGGGACCGUCCCCUCGGUAAUGGCGAAUGGGACCCA | 0.0308
13 | GGCCGGCAUGGUCCCAGCCUCCUCGCUGCCGCCGGCUGGGCAACAUUCCGAGGGGACCGUCCCCUCGGUAAUGGCGGAUGGGACCCA | 0.135
14 | GGCCGGCAUGGUCCCAGCCUCCUCGCUGCCGCCGGCUGGGCAACAUUCCGAGGGGACCGUCCCCUCGGUAAUGGCGAGUGGGACCCA | 0
15 | GGCCGGCAUGGUCCCAGCCUCCUCGCUGCAGCCGGCUGGGCAACAUUCCGAGGGGACCGUCCCCUCGGUAAUGGCGAAUGGGACCCA | 0.156
16 | GGCCGGCAUGGUCCCAGCCUCCUCGCUGCCGGCGGCUGGGCAACAUUCCGAGGGGACCGUCCCCUCGGUAAUGGCGAAUGGGACCCA | 0.0639

Row | Variant | self-cleavage
17 | GGCCGGCAUGGUCCCAGCCUCCUCGCUGCCGCCGGAUGGGCAACAUUCCGAGGGGACCGUCCCCUCGGUAAUGGCGAAUGGGACCCA | 0.0297
18 | GGCCGGCAUGGUCCCAGCCUCCUCGCUGCCGCCGGCUGGGCAAUAUUCCGAGGGGACCGUCCCCUCGGUAAUGGCGAAUGGGACCCA | 0
19 | GGCCGGCAUGGUCCCAGCCUCCUCGCUGCCGCCGGCUGGGCAACAUUGCGAGGGGACCGUCCCCUCGGUAAUGGCGAAUGGGACCCA | 0.095
20 | GGCCGGCAUGGUCCCAGCCUCCUCGCUGCCGCCGGCUGGGCAACAUUCAGAGGGGACCGUCCCCUCGGUAAUGGCGAAUGGGACCCA | 0.222
21 | GGCCGGCAUGGUCCCAGCCUCCUCGCUGCCGCCGGCUGGGCAACAUUCUGAGGGGACCGUCCCCUCGGUAAUGGCGAAUGGGACCCA | 0.128
22 | GGCCGGCAUGGUCCCAGCCUCCUCGCUGCCGCCGGCUGGGCAACAUUCCGAGGGGACCGUACCCUCGGUAAUGGCGAAUGGGACCCA | 0.0791
23 | GGCCGGCAUGGUCCCAGCCUCCUCGCUGCCGCCGGCUGGGCAACAUUCCGAGGGGACCGUCCCAUCGGUAAUGGCGAAUGGGACCCA | 0.0755
24 | GGCCGGCAUGGUCCCAGCCUCCUCGCUGCCGCCGGCUGGGCAACAUUCCGAGGGGACCGUCCCGUCGGUAAUGGCGAAUGGGACCCA | 0.095
25 | GGCCGGCAUGGUCCCAGCCUCCUCGCUGCCGCCGGCUGGGCAACAUUCCGAGGGGACCGUCCCCUAGGUAAUGGCGAAUGGGACCCA | 0.0475
26 | GGCCGGCAUGGUCCCAGCCUCCUCGCUGCCGCCGGCUGGGCAACAUUCCGAGGGGACCGUCCCCUGGGUAAUGGCGAAUGGGACCCA | 0
27 | GGCCGGCAUGGUCCCAGCCUCCUCGCUGCCGCCGGCUGGGCAACAUUCCGAGGGGACCGUCCCCUCGGUAAUGGCGAAUGGGACACA | 0.104
28 | GGCCGGCAUGGUCCCAGCCUCCUCGCUGCCGCCGGCUGGGCAACAUUCCGAGGGGACCGUCCCCUCGGUAAUGGCGAAUGGGACGCA | 0.0978
29 | GGCCGGCAUGGUCCCAGCCUCCUCGCUGCCGCCGGCUGGGCAACAUUCCGAGGGGACCGUCCCCUCGGUAAUGGCGAAUGGGACCGA | 0.133
30 | GGCCGGCAUGGUCCCAGCCUCCUCGCUGCCUCCGGCUGGGCAACAUUCCGAGGGGACCGUCCCCUCGGUAAUGGCGAAUGGGACCCA | 0.0755
31 | GGCCGGCAUGGUCCCAGCCUCCUCGCUGCCGCCGUCUGGGCAACAUUCCGAGGGGACCGUCCCCUCGGUAAUGGCGAAUGGGACCCA | 0.0554
32 | GGCCGGCAUGGUCCCAGCCUCCUCGCUGCCGCCGGCUCGGCAACAUUCCGAGGGGACCGUCCCCUCGGUAAUGGCGAAUGGGACCCA | 0.0489
